Assays:
human Kv1.1 (human) = human Kv1.1 (human) (UniProt Q09470); test: cell-based or functional assay
human Kv1.3 (human) = human Kv1.3 (human) (UniProt P22001); test: cell-based or functional assay
human Kv1.3 (human), sequence (P22001 whole entry): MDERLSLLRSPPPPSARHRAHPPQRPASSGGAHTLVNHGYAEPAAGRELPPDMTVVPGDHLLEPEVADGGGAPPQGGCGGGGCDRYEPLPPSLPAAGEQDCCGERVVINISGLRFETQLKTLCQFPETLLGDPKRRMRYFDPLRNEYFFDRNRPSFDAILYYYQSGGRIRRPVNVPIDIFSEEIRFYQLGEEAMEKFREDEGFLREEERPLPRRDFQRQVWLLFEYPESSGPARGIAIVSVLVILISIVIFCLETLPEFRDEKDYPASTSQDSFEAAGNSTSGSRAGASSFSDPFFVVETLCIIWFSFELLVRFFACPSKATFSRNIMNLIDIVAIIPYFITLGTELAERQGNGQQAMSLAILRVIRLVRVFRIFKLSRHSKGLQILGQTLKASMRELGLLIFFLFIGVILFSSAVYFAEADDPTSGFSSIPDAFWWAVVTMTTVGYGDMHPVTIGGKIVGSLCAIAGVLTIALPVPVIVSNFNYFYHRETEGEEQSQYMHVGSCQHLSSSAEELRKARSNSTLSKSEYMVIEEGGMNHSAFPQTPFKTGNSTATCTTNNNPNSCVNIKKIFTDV

human Kv1.1 (human), sequence (Q09470 whole entry): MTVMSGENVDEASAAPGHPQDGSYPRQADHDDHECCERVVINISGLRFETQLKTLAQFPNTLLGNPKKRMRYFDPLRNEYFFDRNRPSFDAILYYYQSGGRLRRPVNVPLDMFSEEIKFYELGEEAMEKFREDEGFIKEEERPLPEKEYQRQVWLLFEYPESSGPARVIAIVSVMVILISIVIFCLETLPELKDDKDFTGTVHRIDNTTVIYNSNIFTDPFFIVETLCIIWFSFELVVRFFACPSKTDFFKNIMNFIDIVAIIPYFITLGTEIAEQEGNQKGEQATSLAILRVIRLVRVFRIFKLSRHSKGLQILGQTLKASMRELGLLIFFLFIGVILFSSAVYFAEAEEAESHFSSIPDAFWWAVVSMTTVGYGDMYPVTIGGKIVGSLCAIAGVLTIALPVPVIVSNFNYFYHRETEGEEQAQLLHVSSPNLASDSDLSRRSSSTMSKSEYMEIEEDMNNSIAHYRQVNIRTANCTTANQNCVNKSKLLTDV

20 kDa-PEG-ShK (peptide)
Kv1.1 (PX) IC50 (human Kv1.1 (human)): 1.63 nM
Kv1.1/Kv1.3 Selectivity Ratio by PX (human Kv1.3 (human)): 5.44
Kv1.3 (PX) IC50 (human Kv1.3 (human)): 0.299 nM
Potency Relative to ShK (WB, IL2) (human Kv1.3 (human)): 5.67
WB (IFNg) IC50 (human Kv1.3 (human)): 0.84 nM
WB (IL-2) IC50 (human Kv1.3 (human)): 0.38 nM

Monovalent Fc/Fc-L10-ShK[2-35] heterodimer (Fc fusion)
Potency Relative to ShK (WB, IL2) (human Kv1.3 (human)): 32.1

Reference: patent publication US20120195879A1
